Results published in patent publication US20220002363A1, “COMPOSITIONS AND METHODS FOR TREATING PULMONARY DISEASE” (United States Government As Represented By The Department …, priority 2020, published 2022).

Assays:
[1] = test system: Jurkat cells; experiment: Caspase 3/7 activity in Jurkat cells (bioactivity of sFasL proteins); assay type: cell-based, human
Method: Jurkat cells were incubated for 5 hours with wild type (WT) sFasL or a sFasL mutant (mut sFasL) in which 8 charged amino acids were changed to alanine. Caspase 3/7 activity was measured after incubation with the caspase 3/7 substrate at room temperature for 30 minutes. Data is shown as arbitrary luminescence units. […] Each dot represents individual data. Data analyzed by 2-way ANOVA with Sidak post-hoc analysis. ** p<0.01, *** p<0.001 compared to the respective concentration of mut-sFasL.
Methods. Cells and cell culture. To test Fas responses in vitro, the highly-Fas sensitive cell line, Jurak, was used. Jurak cells are human T lymphocyte cells first isolated from the peripheral blood of a child with acute cell leukemia (Gillis S and Watson J. J Exp Med. 1980; 152(6):1709-19). Jurak cells are exquisitely sensitive to Fas ligation and are commonly used as a model cell in studies involving the Fas/FasL system; here they are used as such, rather than as a model of T-cell responses. Jurak cells (human leukemic T lymphocytes) were purchased from ATCC (Clone TIB-152) and grown at 37° C. and 5% CO2 in RPMI-1640 medium supplemented with 10% heat-inactivated fetal bovine serum. Cells were authenticated using short tandem repeat analysis. Mycoplasma status was weakly positive by PCR (Venor GeM Mycoplasma Detection Kit, Sigma-Aldrich, Cat #MP0025). The Jurak data was confirmed in primary human lung epithelial cells and the murine alveolar epithelial cell line LA4, which are described herein.
Measurements of apoptotic cascade activation. Apoptotic cascade activation was assessed by determining caspase 3/7 activity and Annexin V externalization. Caspase-3/7 activity was measured using a commercial substrate (Caspase-Glo 3/7 Assay, Promega, Madison, Wis., Cat #G8090) following manufacturer's instructions. Annexin V was measured with a luminescent commercial assay that allows for measurement of annexin V externalization in adherent cells (RealTime-Glo Annexin V assay, Promega, Madison, Wis., Cat #JA1011). Luminescence was measured with a Synergy H4 Microplate Reader (BioTek, Winooski, Vt.).
Results. Mutations of the charged amino acids in the stalk region of sFasL influence its biological activity in vitro. To test whether the structure of the stalk region of sFasL influences its biological activity, a mutant sFasL molecule (mut-sFasL) was cloned in which 8 charged amino acids in the 26 amino acid stalk region were changed to the non-charged amino acid alanine (FIG. 7). DNA sequencing data for the FasL constructs was also carried out: DNA sequence of wild type sFasL construct and eight different clones. The mutant sFasL clone used in the study is clone 1. […]

[2] = molecular target: T1, recombinant human Fas (Homo sapiens, UniProt P25445); experiment: Competition assay: binding of biotinylated WT sFasL to plate-coated recombinant human Fas; conditions: biotinylated WT-sFasL 70 ng/mL, Fas coated at 250 ng/mL, serial 3-fold dilutions
T1 construct: recombinant human soluble Fas receptors (PeproTech, Rocky Hill, N.J.); purchased PeproTech
T1 sequence (P25445 26-173 limits assumed): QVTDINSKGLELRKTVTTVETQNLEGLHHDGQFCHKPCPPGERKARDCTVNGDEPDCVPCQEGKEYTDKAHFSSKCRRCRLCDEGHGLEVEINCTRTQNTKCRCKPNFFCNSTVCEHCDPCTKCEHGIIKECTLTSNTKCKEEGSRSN
Method: The mixtures were incubated for 2 hours in 96-well plates pre-coated with recombinant hsFas (250 ng/ml). After washing unbound material, biotin was detected using HRP conjugated Streptavidin. […] The sFasL bound to Fas was detected using polyclonal anti-human FasL antibodies. […] Different molar ratios of the Fas-activating antibody CH-11 and mut-sFasL were added, and caspase 3/7 activity measured after 5 hours. […] Data represent the results from three separate experiments, each done in duplicate, and were analyzed by 2-way ANOVA with Sidak's post hoc analysis. […] Each dot represents individual data; lines represent means±SD. *=P<0.05; **=P<0.01, ***P<0.001.
Antibodies and Reagents. […] FLAG tagged mut-sFasL was detected using HRP anti-FLAG monoclonal antibody (Sigma-Aldrich, Cat #A85920). […]
WT-sFasL inhibition occurs prior to receptor binding. […] Recombinant human Fas at 250 ng/mL were coated and the binding of a fixed concentration of biotinylated WT-sFasL (70 ng/mL) were measured in the presence of serial 3-fold dilutions of either WT-sFasL or mut-sFasL. […] Serial dilutions of either WT-sFasL or mut-sFasL were incubated in wells coated with recombinant human Fas, 5 μg/mL, and after washing, detected sFasL bound to Fas using polyclonal anti-FasL antibodies. […]

B1: mut-sFasL: mutant sFasL molecule in which 8 charged amino acids in the 26 amino acid stalk region were changed to alanine (protein)
chain: QLFALQAALAALAASTSQMATASSLAKQIGHPSPPPEKKELRKVAHLTGKSNSRSMPLEWEDTYGIVLLSGVKYKKGGLVINETGLYFVYSKVYFRGQSCNNLPLSHKVYMRNSKYPQDLVMMEGKMMSYCTTGQMWARSSYLGAVFNLTSADHLYVNVSELSLVNFEESQTFFGLYKL
bioactivity (caspase 3/7) at the highest concentration tested ([1]; 810 ng/mL): retained some bioactivity | caspase 3/7 activity ([1]; 5 hours incubation, compared to WT-sFasL): significantly reduced caspase 3/7 activity compared to WT-sFasL | activity relative to the wild-type sFasL ([1]; caspase 3/7): approximately two orders of magnitude less than the wild-type sFasL | intrinsic caspase-3/7 activation ([1]; highest dose of 2430 ng/mL (corresponds to 1:81 WT:mut molar ratio)): leads to intrinsic caspase-3/7 activation | effect of increasing competitor concentration on binding of biotinylated WT-sFasL to Fas [2]: little effect on binding of biotinylated WT-sFasL, except at very high doses
